Reference: paper PMC4931565, “Higher‐order assemblies of oligomeric cargo receptor complexes form the membrane scaffold of the Cvt vesicle” (EMBO Reports, 2016)
Numbering of substitutions follows the chain as printed. In names and notes the source's numbering stands. Several values for one entry are separate records, joined by “and”; a condition that tells them apart may be missing. Equal values may be shown once. Each block holds one molecule with its values, some of them ahead of it.

T1: Saccharomyces cerevisiae mApe1 (mature Ape1 lacking the N-terminal propeptide) (S. cerevisiae), P14904
T1 chain: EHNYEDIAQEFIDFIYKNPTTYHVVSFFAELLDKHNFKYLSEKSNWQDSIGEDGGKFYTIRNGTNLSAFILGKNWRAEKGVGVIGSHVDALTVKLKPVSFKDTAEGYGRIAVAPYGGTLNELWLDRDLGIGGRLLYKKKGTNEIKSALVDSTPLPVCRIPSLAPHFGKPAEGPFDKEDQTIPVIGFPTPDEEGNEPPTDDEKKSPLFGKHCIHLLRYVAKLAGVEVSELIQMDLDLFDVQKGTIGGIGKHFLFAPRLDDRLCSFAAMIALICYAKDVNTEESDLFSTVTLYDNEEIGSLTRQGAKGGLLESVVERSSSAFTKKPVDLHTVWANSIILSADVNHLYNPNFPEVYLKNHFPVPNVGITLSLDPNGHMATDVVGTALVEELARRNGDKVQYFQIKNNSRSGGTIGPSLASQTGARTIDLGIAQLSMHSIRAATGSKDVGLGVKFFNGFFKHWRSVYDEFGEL

B1: Saccharomyces cerevisiae prApe1 (vacuolar aminopeptidase I with its N-terminal propeptide) (natural protein, S. cerevisiae, UniProt P14904 1-514, looked up)
chain: MEEQREILEQLKKTLQMLTVEPSKNNQIANEEKEKKENENSWCILEHNYEDIAQEFIDFIYKNPTTYHVVSFFAELLDKHNFKYLSEKSNWQDSIGEDGGKFYTIRNGTNLSAFILGKNWRAEKGVGVIGSHVDALTVKLKPVSFKDTAEGYGRIAVAPYGGTLNELWLDRDLGIGGRLLYKKKGTNEIKSALVDSTPLPVCRIPSLAPHFGKPAEGPFDKEDQTIPVIGFPTPDEEGNEPPTDDEKKSPLFGKHCIHLLRYVAKLAGVEVSELIQMDLDLFDVQKGTIGGIGKHFLFAPRLDDRLCSFAAMIALICYAKDVNTEESDLFSTVTLYDNEEIGSLTRQGAKGGLLESVVERSSSAFTKKPVDLHTVWANSIILSADVNHLYNPNFPEVYLKNHFPVPNVGITLSLDPNGHMATDVVGTALVEELARRNGDKVQYFQIKNNSRSGGTIGPSLASQTGARTIDLGIAQLSMHSIRAATGSKDVGLGVKFFNGFFKHWRSVYDEFGEL
notes: vacuolar aminopeptidase I (Ape1) of S. cerevisiae, 55-kDa zymogen including the N-terminal propeptide; only TEV cleavage of MBP is described there; also called sc-prApe1; full-length prApe1; source: Sf21, purified (glutathione beads, 3C cleavage, Superose 6); also co-expressed with MBP-Atg19 in Sf21 and co-purified on amylose beads; not shown: GST, N-terminal, cleaved; copies: 12
B2: Saccharomyces cerevisiae mApe1 (mature Ape1 lacking the N-terminal propeptide), P14904 46-514 (natural protein)
chain: T1 chain
B3: Saccharomyces cerevisiae Ams1 (alpha-mannosidase 1), wild type (natural protein, S. cerevisiae, UniProt P22855 1-1083, looked up)
chain: MSSEDIIYDPQFKPVQGIYENRLRQFIDTGGDYHDLNLPKFYDKKRISLDHDHVKVWWYQVSFERGSSPVSPDKRPSWKSIIERDKKGELEFREANINQPFGPSWSTTWFKVKISLPEDWVKSNEQLLFQWDCSNEGIVIDPKTLIPVTAFSGGERTEYVLPKTSDGKHFFYIEAGNNGMFGCGAGSTINPPDDNRFFHLRKADIVWPDLDARALYIDFWMLGDAARELPGDSWQKHQARQLGNAVMNLFDPNDRSSVRKCRELLQREYFDSFLESSKVYEQGESQVLTNVYGIGNCHIDTAWLWPFAETRRKIVRSWSSQCTLMDRFPEYKFVASQAQQFKWLLEDHPEFFNKVLIPKIQQSQFFAVGGTWVENDTNIPSGESLARQFFFGQRFFLKHFGLKSKIFWLPDTFGYSSQMPQLCRLSGIDKFLTQKLSWNNINSFPHSTFNWAGIDGSQLLTHMPPGNTYTADSHFGDVLRTAKQNKTPEYYGSGLMLYGKGDGGGGPTEEMLQKMRRIRSMNNRNGNVIPKLQVGITVDEFYDDILKRTNQGHDLPTWSGELYFEFHRGTYTSQAQTKKLMRLSEIKLHDLEWIAAKTSVLYPDSYKYPSKQINELWENVLLCQFHDVLPGSCIEMVYKYEAVPMLHNVVKECTSLIDKTVQFLQSQSKADLVEMRTLTWSKPEKVSEECSLNGSYTSSVTGYDDYIVLANGKLKVIICKKTGVITSITDETLGVEYLDTEHGRNKLGANQFVIYDDKPLGWQAWDTELYSVNQYKYVTKPKKVQVSCNTKEKCAVEVIFQISEKCKIKSVISLNATAVTDAKLSKVDISTTVENWDARNKFLKVEFPVNIRNDFASYETQFGITKRPTHYNTSWDVAKFEVCHHKFADYSEYSKGVSILNDCKYGFSTHGNLMRLSLLRSPKAPDAHADMGTHEIKYAIYPHRGALSSDTVKLAHEFNYCFKYKLPKDIGMNFDDIISISGDENVILSNIKRGEDDSAVKSNYSLNPRDEQSIVVRVYESLGGESFASLNTTLNLKRIEKVDNLEMKVYKSLTATRDESNHAINRIPIKLRPFEIASFRLYF
notes: alpha-mannosidase 1 (Ams1) of S. cerevisiae, 125-kDa full-length protein (model covers residues up to 1083); Expression from pGAPZ-His6-Ams1; also called His6-Ams1; his-Ams1; source: Pichia pastoris SMD1168, purified
B4: MBP-Atg19 (Saccharomyces cerevisiae Atg19 with N-terminal MBP) (natural protein, S. cerevisiae, UniProt P35193 1-415, looked up)
chain: MNNSKTNQQMNTSMGYPLTVYDECNKFQLIVPTLDANIMLWCIGQLSLLNDSNGCKHLFWQPNDKSNVRILLNNYDYGHLFKYLQCQRKCSVYIGEGTLKKYNLTISTSFDNFLDLTPSEEKESLCREDAHEDPVSPKAGSEEEISPNSTSNVVVSRECLDNFMKQLLKLEESLNKLELEQKVTNKEPNHRISGTIDIPEDRSELVNFFTELKTVKQLEDVFQRYHDYERLSQECDSKTEIASDHSKKETKIEVEPPNERSLQITMNQRDNSLYFQLFNNTNSVLAGNCKLKFTDAGDKPTTQIIDMGPHEIGIKEYKEYRYFPYALDLEAGSTIEIENQYGEVIFLGKYGSSPMINLRPPSRLSAESLQASQEPFYSFQIDTLPELDDSSIISTSISLSYDGDDNEKALTWEEL
notes: autophagy receptor Atg19 of S. cerevisiae, from cDNA; source: Sf21, purified (amylose beads, eluted with maltose); also in Sf21 lysate, co-expressed with prApe1; not shown: MBP, N-terminal, kept
B5: Saccharomyces cerevisiae Ams1 W234E mutant (natural protein, S. cerevisiae, UniProt P22855 1-1083, looked up)
chain: B3 chain with W234E
notes: alpha-mannosidase 1 (Ams1) of S. cerevisiae with W234E in the N-terminal four-helix bundle; Same construct as m4 (pGAPZ-His6-Ams1) with the point mutation; also called W234E dimers; source: Pichia pastoris SMD1168, purified
B6: Saccharomyces cerevisiae Atg19 (MBP tag cleaved) (natural protein, S. cerevisiae, UniProt P35193 1-415, looked up)
chain: B4 chain
notes: autophagy receptor Atg19 of S. cerevisiae, from cDNA; also called trimeric Atg19; source: Sf21, purified (amylose beads, TEV cleavage, DEAE ion exchange); or co-purified with prApe1 (amylose beads, TEV cleavage, Superose 6); not shown: MBP, N-terminal, cleaved

What was measured:
[1] = target: Chaetomium thermophilum mApe1 (Chaetomium thermophilum); assay: negative stain EM; purified protein or purified complex, 2% uranyl acetate, droplet technique; particles and class averages
[2] = target: Chaetomium thermophilum mApe1 (Chaetomium thermophilum); assay: crystal structure; ct-mApe1, hanging drop, 4 C, 100 mM Hepes pH 6.6, 4 M sodium formate; 2.8 A
[3] = target: the molecule itself; assay: negative stain EM; purified protein or purified complex, 2% uranyl acetate, droplet technique; particles and class averages
[4] = target: T1, Saccharomyces cerevisiae mApe1 (mature …); assay: as above; conditions: remark: other sources report otherwise
[5] = target: T1, Saccharomyces cerevisiae mApe1 (mature …); assay: negative stain EM; GraFix-purified sc-mApe1 (10-30% glycerol with 0-0.15% glutaraldehyde gradient, 50 mM Hepes pH 7.5, 150 mM NaCl); 3D reconstruction with tetrahedral symmetry, 24 A; conditions: remark: other sources report otherwise
[6] = target: the molecule itself; assay: cryo-EM structure; His6-Ams1 0.4 mg/ml in 50 mM Tris-HCl, 175 mM NaCl, 75 mM imidazole; D2 symmetry, 6.3 A
[7] = target: B3; assay: pull-down; purified MBP-Atg19 or MBP (1 uM) mixed with his-Ams1 (1 uM), mApe1 (1 uM) or prApe1 (0.7 uM) overnight at 4 C in 50 mM Tris-HCl pH 7.5, 25 mM NaCl, 5 mM MgCl2, 1 mM DTT, 0.2% NP-40; captured on amylose beads; SDS-PAGE, Coomassie; conditions: both partners purified
[8] = target: the molecule itself; assay: SEC-MALS; Atg19 about 2 mg/ml, 50 mM Tris pH 7.5, 150 mM NaCl, 0.5 mM TCEP, Superose 6 increase, room temperature, triplicate

stoichiometry N [1]: 12
stoichiometry N [2]: 12
Molecule: Chaetomium thermophilum mApe1 (natural protein)

Molecule: B1
stoichiometry N [3]: 12

Molecule: B2
stoichiometry N [4]: 12 and 6
stoichiometry N [5]: 12

Molecule: B3
stoichiometry N [6]: 4

Molecule: B4
binding result [7]: binds

Molecule: B5
stoichiometry N [3]: 2

Molecule: B6
stoichiometry N [8]: 3
